For 1 molecule, Kd and fold change of KD against wild-type MYC(1–88) results are on record in publication PMC8989513.

Test in all cases: BLI
The target of experiment [1] is C-terminally biotinylated MYC(1–88)ΔMB0.
For experiment [2], the target named is biotinyl-MB0 peptide (MYC Box 0, aa 16–33).
Experiment [3] has as its target MYC(1–88 Y22A), C-terminally biotinylated.
The target of experiment [4] is MYC(1–88 P21A), C-terminally biotinylated.
For experiment [5], the target named is C-terminally biotinylated MYC(1–88).
Experiment [6] concerns the target MYC(1–88 F23A), C-terminally biotinylated.
Experiment [7] deals with MYC(1–88 Y24A), C-terminally biotinylated.

B1: PNUTS(1–148), PNUTS amino-terminal domain (PAD) (domain or fragment)
chain: MGSGPIDPKELLKGLDSFLNRDGEVKSVDGISKIFSLMKEARKMVSRCTYLNILLQTRSPEILVKFIDVGGYKLLNNWLTYSKTTNNIPLLQQILLTLQHLPLTVDHLKQNNTAKLVKQLSKSSEDEELRKLASVLVSDWMAVIRSQS
Regarding B1, the Kd was greater than 100 µM in experiment [1], 9.4 µM in experiment [2] and 3.5 µM in experiment [5]. In addition, the fold change of KD against wild-type MYC(1–88) in experiment [3], in experiment [4], in experiment [6] and in experiment [7] was greater than 5 fold each time.
